# Laboratory results from publication PMC4914113, “Another look at the mechanism involving trimeric dUTPases in Staphylococcus aureus pathogenicity island induction involves novel players in the party” (Nucleic Acids Research, 2016).
# Key:
# [1] = target: Dut80α^WT, wild-type dUTPase of phage 80α (Staphylococcus aureus phage 80α); test: BLI; as a1, buffer STL supplemented with 5 mM dUMP (baselines and dissociation without nucleotide); 1:1 model
# [2] = target: Dutϕ11^WT, wild-type dUTPase of phage ϕ11 (Staphylococcus aureus phage ϕ11); test: as above
# [3] = target: Dut80α^ΔV, Dut80α motif V deletion mutant (Staphylococcus aureus phage 80α); test: as above
# [4] = target: Dut80α^ΔVI-IV-11 (Staphylococcus aureus phage 80α); test: BLI; BLItz; His-tagged Dut immobilised at 1 μM on Ni-NTA biosensors, Stl in solution (at least five dilutions, 4 to 0.062 μM); buffer STL (400 mM NaCl, 75 mM HEPES pH 7.5, 5 mM MgCl2, 2 mM DTT); no nucleotide; 1:1 model
# [5] = target: Dut80α D81A D110C S168C (Staphylococcus aureus phage 80α); test: as above
# [6] = target: Dut80α^IV-11 (Staphylococcus aureus phage 80α); test: as above
# [7] = target: Dut80α^ΔVI, Dut80α lacking motif VI (Staphylococcus aureus phage 80α); test: as above
# [8] = target: Dut80α^WT, wild-type dUTPase of phage 80α (Staphylococcus aureus phage 80α); test: as above
# [9] = target: Dut80α^D81A (Staphylococcus aureus phage 80α); test: as above
# [10] = target: Dut80α^ΔV, Dut80α motif V deletion mutant (Staphylococcus aureus phage 80α); test: as above
# [11] = target: Dut80α^Y84I (Staphylococcus aureus phage 80α); test: as above
# [12] = target: Dutϕ11^IV-80α (Staphylococcus aureus phage ϕ11); test: as above
# [13] = target: Dutϕ11^ΔV-ΔVI (Staphylococcus aureus phage ϕ11); test: as above
# [14] = target: Dutϕ11^(ΔVI F164A) (Staphylococcus aureus phage ϕ11); test: as above
substance,measurement,setting,value
Stl repressor from SaPIbov1 (natural protein),Kd,[1],23.5 nM
same,koff,[1],0.0008 s⁻¹
same,kon,[1],34000 M⁻¹ s⁻¹
same,Kd,[2],1.93 nM
same,koff,[2],5.8e-05 s⁻¹
same,kon,[2],30000 M⁻¹ s⁻¹
same,Kd,[3],602 nM
same,koff,[3],0.005 s⁻¹
same,kon,[3],8300 M⁻¹ s⁻¹
same,Kd,[4],4.56 nM
same,koff,[4],0.00026 s⁻¹
same,kon,[4],57000 M⁻¹ s⁻¹
same,Kd,[5],58.3 nM
same,koff,[5],0.0014 s⁻¹
same,kon,[5],24000 M⁻¹ s⁻¹
same,Kd,[6],3.13 nM
same,koff,[6],0.00021 s⁻¹
same,kon,[6],67000 M⁻¹ s⁻¹
same,Kd,[7],> 1000 nM
same,Kd,[8],40 nM
same,koff,[8],0.001 s⁻¹
same,kon,[8],25000 M⁻¹ s⁻¹
same,Kd,[9],161 nM
same,koff,[9],0.0042 s⁻¹
same,kon,[9],26000 M⁻¹ s⁻¹
same,Kd,[10],530 nM
same,koff,[10],0.009 s⁻¹
same,kon,[10],17000 M⁻¹ s⁻¹
same,Kd,[11],> 1000 nM
same,Kd,[12],3.33 nM
same,koff,[12],0.00025 s⁻¹
same,kon,[12],75000 M⁻¹ s⁻¹
same,Kd,[13],111 nM
same,koff,[13],0.0019 s⁻¹
same,kon,[13],17000 M⁻¹ s⁻¹
same,Kd,[14],131 nM
same,koff,[14],0.0021 s⁻¹
same,kon,[14],16000 M⁻¹ s⁻¹
